Where a chain is given by its changes, count along the chain named. Names and notes keep the numbering of the source.
B1: SEQ ID NO: 102: mutant HPPD polypeptide: M264L P268G (Table 2: R) T270E T315R E335P G336H N337S A340V S344Q I345M (protein)
chain: MADLYENPMGLMGFEFIEFASPTPGTLEPIFEIMGFTKVATHRSKNVHLYRQGEINLILNNEPNSIASYFAAEHGPSVCGMAFRVKDSQKAYNRALELGAQPIHIDTGPMELNLPAIKGIGGAPLYLIDRFGEGSSIYDIDFVYLEGVERNPVGAGLKVIDHLTHNVYRGRMVYWANFYEKLFNFREARYFDIKGEYTGLTSKAMSAPDGMIRIPLNEESSKGAGQIEEFLMQFNGEGIQHVAFLTDDLVKTWDALKKIGMRFLTAPRDEYYEMLEGRLPDHGEPVDQLQARGILLDGSSVEGDKRLLLQIFSERLMGPVFFEFIQRKGDDGFGPHSFKVLFEQMERDQVRRGVLTAD
modifications: mutant HPPD polypeptide
B2: SEQ ID NO: 101: mutant HPPD polypeptide: M264L P268G T270E T315R E335P G336D N337S A340V S344Q I345M (protein)
chain: B1 chain with R268G, H336D
modifications: mutant HPPD polypeptide
notes: mutant HPPD polypeptide: M264L P268G T270E T315R E335P G336D N337S A340V S344Q I345M
B3: SEQ ID NO: 43: mutant HPPD polypeptide: R213K P268G T270E E335P G336D N337S A340V I345V (protein)
chain: B1 chain with R213K, L264M, R268G, R315T, H336D, Q344S, M345V
modifications: mutant HPPD polypeptide
notes: mutant HPPD polypeptide: R213K P268G T270E E335P G336D N337S A340V I345V
B4: SEQ ID NO: 8: mutant HPPD polypeptide: E335P G336D N337S A340V (protein)
chain: B1 chain with L264M, R268P, E270T, R315T, H336D, Q344S, M345I
modifications: mutant HPPD polypeptide
notes: mutant HPPD polypeptide: E335P G336D N337S A340V
B5: SEQ ID NO: 34: mutant HPPD polypeptide: P268G T270E D330H E335P G336D N337S A340R I345K (protein)
chain: B1 chain with L264M, R268G, R315T, D330H, H336D, V340R, Q344S, M345K
modifications: mutant HPPD polypeptide
notes: mutant HPPD polypeptide: P268G T270E D330H E335P G336D N337S A340R I345K
B6: SEQ ID NO: 54: mutant HPPD polypeptide: P268G T270E E335P G336D N337S K339A A340V I345V (protein)
chain: B1 chain with L264M, R268G, R315T, H336D, K339A, Q344S, M345V
modifications: mutant HPPD polypeptide
notes: mutant HPPD polypeptide: P268G T270E E335P G336D N337S K339A A340V I345V
B7: SEQ ID NO: 22: mutant HPPD polypeptide: E335P G336H N337S A340V (protein)
chain: B1 chain with L264M, R268P, E270T, R315T, Q344S, M345I
modifications: mutant HPPD polypeptide
notes: mutant HPPD polypeptide: E335P G336H N337S A340V
B8: SEQ ID NO: 5: mutant HPPD polypeptide: E335P N337S (protein)
chain: B1 chain with L264M, R268P, E270T, R315T, H336G, V340A, Q344S, M345I
modifications: mutant HPPD polypeptide
notes: mutant HPPD polypeptide: E335P N337S
B9: SEQ ID NO: 105: mutant HPPD polypeptide: R213K M264L P268G T270E E335P G336H N337S A340R S344Q I345M (protein)
chain: B1 chain with R213K, R268G, R315T, V340R
modifications: mutant HPPD polypeptide
notes: mutant HPPD polypeptide: R213K M264L P268G T270E E335P G336H N337S A340R S344Q I345M
B10: SEQ ID NO: 56: mutant HPPD polypeptide: P268G T270E E335P G336D N337S K339R A340V I345V (protein)
chain: B1 chain with L264M, R268G, R315T, H336D, K339R, Q344S, M345V
modifications: mutant HPPD polypeptide
notes: mutant HPPD polypeptide: P268G T270E E335P G336D N337S K339R A340V I345V
B11: SEQ ID NO: 24: mutant HPPD polypeptide: E335P G336H N337S A340V I345V (protein)
chain: B1 chain with L264M, R268P, E270T, R315T, Q344S, M345V
modifications: mutant HPPD polypeptide
notes: mutant HPPD polypeptide: E335P G336H N337S A340V I345V
B12: 45 (protein)
chain: B1 chain with L264M, R268G, H336D, Q344S, M345V
modifications: mutant HPPD polypeptide
B13: 48 (protein)
chain: B1 chain with L264M, R268G, R315T, D331H, H336D, Q344S, M345V
modifications: mutant HPPD polypeptide
B14: 38 (protein)
chain: B1 chain with L264M, R268G, R315T, D330V, H336D, Q344S, M345V
modifications: mutant HPPD polypeptide
B15: 50 (protein)
chain: B1 chain with L264M, R268G, R315T, D331P, H336D, Q344S, M345V
modifications: mutant HPPD polypeptide

Test system: transgenic soybean T0 events
Assay: Additional greenhouse trials of T0 soybean events, leaf damage score 0-100 as percentiles
Type: in vivo
Details: Cmpd. 1 300 g AI/ha, five days; 75th minus 25th percentile
From the text: In additional greenhouse trials, 21 to 94 independent T0 soybean events per construct containing an exemplary mutant HPPD polypeptide were sprayed with the HPPD inhibitor herbicide Cmpd. […] Five days after the application, the leaf damaged area due to the HPPD inhibitor herbicide is scored in a scale from 0 (no damage) to 100 (complete bleaching). Under those conditions, the wild-type plants were completely bleached and their damage scores were in the 95-100 range.
Table 9 presents the distribution of the HPPD inhibitor herbicide damage score data as percentile for exemplary mutant HPPD inhibitor herbicide tolerant polypeptides (SEQ ID NOs). The percentiles normalize ranks of the damage score from an individual plant in a population. […] The median is the 50th percentile. Half the values had higher damage scores; half had lower damage scores. […] The difference between the 75th and 25th percentile is called the interquartile range and a marker to quantify scattering in the population. All constructs had only one single cassette insertion in the soybean genome.
In Table 9, the constructs were ranked based on injury scores according to the 75th percentile, from smallest to highest score. All exemplary HPPD polypeptide variants are better in all percentile analyses than the prior art mutant HPPD polypeptide (WO2014/043435) corresponding to SEQ ID NO:2 in this invention. The scoring of the prior art mutant HPPD polypeptide (WO2014/043435) corresponding to SEQ ID NO:2 in this invention is listed in the bottom row of Table 9.

Molecule	leaf damage score, Interquartile range
B1	12.0
B2	10.0
B3	10.0
B4	6.3
B5	10.0
B6	10.0
B7	5.0
B8	10.0
B9	10.0
B10	10.0
B11	10.0

Same assay, conditions: Cmpd. 1 300 g AI/ha, five days; scale 0 (no damage) to 100 (complete bleaching)

Molecule	leaf damage score, 25th percentile
B1	8.0
B2	5.0
B3	10.0
B4	10.0
B5	10.0
B6	10.0
B7	10.0
B8	10.0
B9	5.0
B10	10.0
B11	10.0

Same assay, conditions: Cmpd. 1 300 g AI/ha, five days; scale 0-100

Molecule	leaf damage score, 75th percentile	leaf damage score, 90th percentile	leaf damage score, Median
B1	20.0	45.0	10.0
B2	15.0	49.0	10.0
B3	20.0	67.0	15.0
B4	16.3	38.5	10.0
B5	20.0	70.0	15.0
B6	20.0	62.5	10.0
B7	15.0	34.5	10.0
B8	20.0	72.0	15.0
B9	15.0	70.0	10.0
B10	20.0	65.0	15.0
B11	20.0	35.0	10.0

Test system: HPPD polypeptides (wild-type SEQ ID NO:1 and mutants)
Assay: not given
Details: kapp in presence of 50 μM Cmpd. 1, normalised to kapp without inhibitor; low substrate concentration
Experimental: For the generation of crude HPPD polypeptide extract in micro titer plates (MTP) for the determination of residual activity in inhibition assays, cells were grown in 40 or 150 μl LB medium containing 1% Glucose (Merck, Darmstadt, Germany) and 100 μg/ml ampicillin in a standard 96 well plate (Thermo Fisher Scientific, Waltham, USA) incubated for about 18 h in a humidity incubator at 37° C.
30 μl of this starter culture were added to 600 μl LB medium containing 100 μg/ml ampicillin and 150 mM Hepes (Merck, Darmstadt, Germany) as inoculum for the expression culture in 96 well plates (2 ml deep wells; HJ Bioanalytik, Erkelenz, Germany) The plates were sealed by an aluminium foil, and cells were incubated for 5 h at 37° C. on a plate shaker at 750 rpm. The expression was induced by addition of IPTG in a final concentration of 1 mM followed by further sealed incubation for about 18 h at 30° C. on a plate shaker at 750 rpm.
Cells were harvested by centrifugation at 4° C., 2500 g for 15 min discarding the supernatant. Cell pellets were stored at −80° C. and lysed in 250 μl 1× BugBuster® (Merck, Darmstadt, Germany) in 140 mM Tris (pH 7.8), with 1:25000 diluted BNase® (Qiagen, Hilden, Germany) by incubation of the resuspended cells for 30 min at 4° C. and 1000 rpm. Lysates were clarified by centrifugation for 15 min at 4° C., 2500 g, and 150 μl supernatant were transferred in standard 96 well plate (Thermo Fisher Scientific, Waltham, USA) for subsequent testing in quadruplets.
The activity of HPPD polypeptides was determined in absence or presence of HPPD inhibitors using the coupled HPPD activity assay (FIG. 1).
For the determination of the residual activity, the apparent kinetic constant (kapp) of the determined substrate conversion was measured as kinetic changes in absorbance at 320 nm in a coupled assay, in that homogentisate (HGA) formed by HPPD from HPP is directly converted into the well absorbing molecule maleylacetoacetate (MAA) by a second enzyme homogentisate dioxygenase (HGD), applied in excess uniformly in all assays (see FIG. 1). The measurements were performed in 384 micro titer plates (Greiner Bio-One GmbH, Frickenhausen, Germany) by plate readers (Tecan infinite M1000 or M1000PRO, Tecan, Männedorf, Switzerland). The kcat/kM ratio of an enzymatic activity is proportional to the apparent kinetic constant kapp and is proportional to kcat/kM*[E] ([E]=enzyme concentration). […] As both kapp measurements in the presence and absence of inhibitor were performed by use of the identical enzyme sample, crude or purified, and thereby at the same enzyme concentration, the enzyme concentration eliminates from the calculation of residual activity and the ratio of both kapp directly indicates the change of kM due to the inhibition.

Molecule	Residual activity [%]
B12	39
B13	47
B14	78
B15	46

Same assay, conditions: total change in signal in presence of 50 μM Cmpd. 1, normalised to that without inhibitor; low substrate concentration

Molecule	Residual turnover [%]
B12	68
B13	74
B14	94
B15	80

Reference: patent US10597674B2, “HPPD variants and methods of use” (BASF Agricultural Solutions Seed, US LLC, priority 2015, dated 2020)
